Data published in patent US20220380409A1 (published 2022).
Ends that are not written are not given here.

B1: binary ligand hevwh-YLGHK (peptide)
peptide 1: HEVWH
peptide 2: YLGHK
modifications: not fully specified (bridges)
B2: RCM cyclized version of the HWSAN (SEQ ID NO:11) peptide (peptide)
peptide: HWSAN
modifications: staple (positions not given here); also: RCM ring between olefin-bearing non-natural residues, places not given here, biotinylated

Experiments:
GST-PvLDH = GST-PvLDH (UniProt P84793 1-313); assay: sandwich ELISA
GST-PfLDH [1] = target: T1, GST-PfLDH (UniProt Q27743 2-316); assay: sandwich ELISA
PfLDH protein = PfLDH protein (UniProt Q27743 2-316)
GST-PfLDH [2] = target: T1, GST-PfLDH; assay: ELISA

Row | Binder | EC50 (GST-PvLDH) [nM] | EC50 (GST-PfLDH [1]) [nM] | Kd (PfLDH protein) [nM] | EC50 (GST-PfLDH [2]) [nM]
1 | B1 | 12 | 15.1 | ~10 | –
2 | B2 | – | – | – | 2.57
